In the supplement of paper PMC12042874:
± gives the uncertainty stated by the source.

Experiment: amyloid nucleation score (Sup35N fusion, yeast selection) (log enrichment); library NNK2; higher = more nucleation; inactive = no reads after selection
Method in brief: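 For the nucleation score, DiMSum gave the log enrichment of output over input reads, centred on the mode score of non-aggregating sequences. Psi-negative yeast expressing Sup35N fused to peptides of 20 random codons were induced with 100 μM copper sulfate for 24 hours and grown 7 days at 30°C on medium lacking adenine and uracil. Input and output plasmid inserts were Illumina-sequenced, and sequences with under 100 input reads were excluded.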

FSSATDVCDGSRSIIRIAGA and FSSSFVVWALYPVTFHLTRS are within error of each other in amyloid nucleation score: -0.283 ± 1 for the first, 0.112 ± 0.4 for the second.

FSTRGSAMLRVAGLSGPRAS and FSVRRLVDHFSNSMEDPHLP are within error of each other in amyloid nucleation score: 0.29 ± 0.43 for the first, -0.342 ± 1 for the second.

Going from FSVSSLVAVMNNTHLVVSGG to FSVTMDGYIRI, the amyloid nucleation score falls from 2.34 ± 0.081 to 0.06 ± 0.44.

FSYFVFLVKFVTVFTPTIHV and FSYMWAHTGSFPRRQVIITI are within error of each other in amyloid nucleation score: -1.12 ± 0.3 for the first, -0.596 ± 0.55 for the second.

First: FTAFWGYSTSVFHMDMCLRK
Second: FTFDMVSSKSQYMNIDRNVR
The amyloid nucleation score of the first is higher: 2.17 ± 0.071 for the first, -0.996 ± 0.78 for the second.

Compared with FTSSYKSAVRTLIFVLSESG, FTTFRR is lower in amyloid nucleation score: 0.331 ± 0.36 for the first, -0.854 ± 0.55 for the second.

First: FTTPSRS
Second: FTVMFLLKMISFKGALHLRL
The amyloid nucleation score of the first is higher: 0.623 ± 0.53 for the first, -0.764 ± 0.65 for the second.

FTWLRPRGFS and FVDVKHDVVKAMRLWFR are within error of each other in amyloid nucleation score: -0.676 ± 0.27 for the first, -0.632 ± 1.1 for the second.

Going from FVEITRG to FVGTCSHYRGCSVCFITDLL, the amyloid nucleation score rises from -0.196 ± 1.1 to 6.135 ± 0.057.

FVHERASGIVMLRGISVRGP and FVLSTVRLSAASAPMRFTHL are within error of each other in amyloid nucleation score: -0.327 ± 0.48 for the first, 0.468 ± 0.74 for the second.

Going from FVNLRFSKVGWYDLF to FVRNKLMADFFWLGFYN, the amyloid nucleation score falls from -0.255 ± 0.65 to -1.79 ± 0.63.

First: FVSLWT
Second: FVTAKSYNVLISKGYRKELL
The amyloid nucleation score of the first is higher: 0.277 ± 0.45 for the first, -0.716 ± 0.48 for the second.

Going from FVTCYKLWMAFYTMVQSRKS to FVYSVRS, the amyloid nucleation score falls from 1.17 ± 0.48 to 0.025 ± 0.63.

First: FWGGKNYI
Second: FWLGSVVGNSCAWVITWAIL
The amyloid nucleation score of the first is lower: -1.5 ± 0.75 for the first, -0.036 ± 0.44 for the second.

Compared with FWVALYFSTCFPHDMLSSGP, FWVVIVAHSVSWLLLTWQLE is higher in amyloid nucleation score: -0.734 ± 0.54 for the first, 0.553 ± 0.65 for the second.

Compared with FYDSVKEISVLSCVWGDILE, FYIKRVTAVNCDTDSSFNVL is lower in amyloid nucleation score: 7.235 ± 0.029 for the first, -0.805 ± 0.42 for the second.

FYISKFLAWFIIPSGLFLGN and FYKHMLVTATFSLMYITQDD are within error of each other in amyloid nucleation score: -1.72 ± 1.1 for the first, -0.404 ± 0.48 for the second.

FYPVFKSMLVMAGVTRHLAR and FYSGKRARMGGEGGEKTPRS are within error of each other in amyloid nucleation score: -0.487 ± 0.26 for the first, -1.2 ± 0.48 for the second.

FYVRSSTYFFHVYNYL and FYWHCKGWQRISLGRFIGDC are within error of each other in amyloid nucleation score: -0.387 ± 0.28 for the first, -0.622 ± 0.61 for the second.

GACVAKATF and GAELPKYESRLPFLSAGLRQ are within error of each other in amyloid nucleation score: 0.616 ± 0.19 for the first, -0.048 ± 0.53 for the second.

Going from GASPWPHTTMIFISILSNCV to GAVNFYHT, the amyloid nucleation score rises from 3.37 ± 0.11 to 4.06 ± 0.044.

GCDTRHSPLVSNALGLAIAS and GCHVRSFK are within error of each other in amyloid nucleation score: -0.052 ± 0.49 for the first, 0.158 ± 0.31 for the second.

Going from GCLMVGINGCPIGPM to GCLPHGY, the amyloid nucleation score rises from -1.11 ± 1.1 to 0.663 ± 0.62.

GCSVCDMTF and GDKVACKEIWTVNVYVNTLG are within error of each other in amyloid nucleation score: 0.073 ± 0.53 for the first, 0.229 ± 0.26 for the second.

Going from GDKYICELHWRFLGQNSVW to GDMVIDLSKYITYSSL, the amyloid nucleation score falls from 4.07 ± 0.11 to 1.37 ± 0.38.

First: GDRDVI
Second: GDRYSSYSRFEEY
The amyloid nucleation score of the first is higher: 1.31 ± 0.38 for the first, 0.565 ± 0.19 for the second.

First: GECLDR
Second: GEFSLF
The amyloid nucleation score of the first is higher: 2.83 ± 0.075 for the first, 0.2 ± 0.37 for the second.

GEHRQGCYFGAIVFAILMFS and GESSPE are within error of each other in amyloid nucleation score: 0.007 ± 0.55 for the first, 0.343 ± 0.8 for the second.

Compared with GFDLNFRYA, GFFTPPRVRNNTSEGDVK is lower in amyloid nucleation score: 4.43 ± 0.077 for the first, -0.418 ± 1.1 for the second.

Compared with GFHIGDVCNYGVVFSSVARL, GFHSCG is lower in amyloid nucleation score: 5.863 ± 0.05 for the first, 4.85 ± 0.067 for the second.

GFLGCESREKEECSIKERLC and GFLQSGCPSTLLSLRKRAIL are within error of each other in amyloid nucleation score: -0.515 ± 1 for the first, 0.307 ± 0.51 for the second.

Going from GFPVWVYYKMDLYCLSVKGI to GFWEGRILG, the amyloid nucleation score rises from -0.672 ± 0.61 to 2.61 ± 0.22.

Going from GGHDCTVPDGFALGWYMTRG to GGIFFCGIWCLVYDVSVFVA, the amyloid nucleation score rises from 0.995 ± 0.51 to 3.43 ± 0.11.

GGLMRTSPNS and GGLPGRVVEATCWYPVINVR are within error of each other in amyloid nucleation score: -0.108 ± 1.1 for the first, 0.889 ± 0.47 for the second.

Compared with GGMDNQCHLVRCGRRSLAPV, GGPSGQFCYPGGNKGYCN is lower in amyloid nucleation score: 1.65 ± 0.4 for the first, -0.724 ± 1 for the second.

Going from GGSRTRSCQDRAHEGGK to GGTIKALYNSSGTRRMSKLR, the amyloid nucleation score falls from 0.949 ± 0.74 to -0.224 ± 0.2.

GGTPRSINVF and GGYGLICCYQMLEDSTKDMM are within error of each other in amyloid nucleation score: 0.201 ± 0.8 for the first, -0.603 ± 1.1 for the second.

Going from GHCLSYMCVGLA to GHLNFS, the amyloid nucleation score falls from 4.304 ± 0.039 to -0.166 ± 1.1.

Compared with GHLRYTIDTGTTSGSSDLMS, GHPSIDAQTPV is higher in amyloid nucleation score: -0.842 ± 0.63 for the first, 1.39 ± 0.47 for the second.

First: GICHWGLLFTACFIPWRMRG
Second: GIFTTWNRISRRLCLRVHYP
The amyloid nucleation score of the first is higher: 1.37 ± 0.32 for the first, -0.497 ± 0.34 for the second.

Compared with GIIDMSRLVMHQITEPLLSQ, GILMISDAYDIREYFKLVTF is lower in amyloid nucleation score: 0.092 ± 0.32 for the first, -1.32 ± 0.62 for the second.

Compared with GIMSSELLYYYVRISYESC, GINCRGAIR is higher in amyloid nucleation score: -1.21 ± 0.45 for the first, -0.345 ± 0.26 for the second.

Going from GINFVF to GINISVLNMRQLFRLSAGSH, the amyloid nucleation score rises from -0.287 ± 0.79 to 4.36 ± 0.086.

Compared with GIYVEEWGHSVPALRWIDKS, GKCFIWCSMGIWLGVCDQSA is higher in amyloid nucleation score: 0.309 ± 0.8 for the first, 3.59 ± 0.089 for the second.

First: GKGANARLCIRYDITAVEGT
Second: GKLRLLWKGITCVRAFANKL
The amyloid nucleation score of the first is higher: 1.61 ± 0.44 for the first, -0.976 ± 0.34 for the second.

First: GKRYCWSLAVNRGFTDTLGV
Second: GKTYLDKLMGGLHRQDPGTR
The amyloid nucleation score of the first is lower: 0.261 ± 0.46 for the first, 1.28 ± 0.53 for the second.

First: GLCKTVSWRNSSLEKDLFGR
Second: GLCSIYNWYLVFQVIRTLSW
The amyloid nucleation score of the first is lower: -0.813 ± 0.78 for the first, 2.41 ± 0.14 for the second.

Compared with GLERNRFGRQCLGWLLWNEA, GLFGGIHFVANLGTPPCLDE is higher in amyloid nucleation score: 0.065 ± 1.1 for the first, 1.56 ± 0.31 for the second.

GLFRWYNMDNYVQI and GLFWVCAGGGKVGEYRYSGV are within error of each other in amyloid nucleation score: -0.604 ± 0.76 for the first, 0.021 ± 0.39 for the second.

First: GLGGTTFI
Second: GLGVSTKRLYFTMMADCFNG
The amyloid nucleation score of the first is lower: -1.04 ± 0.43 for the first, 0.131 ± 0.49 for the second.

GLHEVR and GLKMLFNVNLQDM are within error of each other in amyloid nucleation score: 0.042 ± 0.65 for the first, -0.368 ± 1 for the second.

GLKTMLY and GLLAPLSSCLCVRDFVGLKA are within error of each other in amyloid nucleation score: -0.227 ± 0.27 for the first, -0.187 ± 0.3 for the second.

Going from GLNIGVCLIMHEDRTNSGGK to GLRQVGA, the amyloid nucleation score falls from 8.011 ± 0.032 to -0.34 ± 0.79.

GLRTK and GLRYIS are within error of each other in amyloid nucleation score: 0.622 ± 0.41 for the first, -0.102 ± 0.5 for the second.

GLSGMEGKLS and GLYHFRVITASKSQMEGFLM are within error of each other in amyloid nucleation score: -0.398 ± 0.63 for the first, -0.018 ± 1.1 for the second.

Going from GMIVVTSGNSR to GMSRYMHSIYD, the amyloid nucleation score rises from -0.037 ± 0.42 to 1 ± 0.41.

Going from GMSTRQFKLLPGCREVMRAG to GMYNLSSGYRCERVGVAENI, the amyloid nucleation score falls from 0.571 ± 0.64 to -0.513 ± 0.3.

Compared with GNIAVYNDAILLVWDNESRT, GNLGSHYALGPLDRATRGER is higher in amyloid nucleation score: -0.714 ± 1 for the first, 0.632 ± 0.26 for the second.

GNVLFAFTFSVCLKFLAFVF and GPDSLLGFMSAHNWSAKVYP are within error of each other in amyloid nucleation score: -0.407 ± 0.64 for the first, 0.209 ± 0.44 for the second.

Going from GPLFPNFKSLGGEYRRH to GQLSVVKCRSY, the amyloid nucleation score rises from 0.325 ± 0.42 to 1.14 ± 0.29.

First: GQNRKLLDLIYRMLGSLLWH
Second: GREPESF
The amyloid nucleation score of the first is lower: 0.309 ± 0.8 for the first, 1.72 ± 0.13 for the second.

In the case of GRFIHKIVLNDGV, the amyloid nucleation score is reported as 0.084 ± 0.56.

For FSSSI, the amyloid nucleation score was “inactive”.
With FSTQGTFVSVHGVADLAVCF the amyloid nucleation score was “inactive”.
In the case of FSVLMEDHSRFIF, the amyloid nucleation score is reported as “inactive”.
In the case of FTRRSGSRLWTRFALGDWVA, the amyloid nucleation score is reported as “inactive”.
In the case of FVGVYMVLRSLGDRVSYVMF, the amyloid nucleation score is reported as “inactive”.
In the case of GNSYNVKTYTNLVGIIMDKA, the amyloid nucleation score is reported as “inactive”.
With GNYPPTFACNSN the amyloid nucleation score was “inactive”.
